This test deals with recombinant small latent TGF-β. Put plainly: cell-based or functional assay.

Turning to “TSP stripped of TGF-β activity (sTSP) (from UniProt P07996 19-1170)”, the Fold Activation of Latent TGF-β over Baseline (soft agar NRK colony formation) (fold over baseline) was 2. With RFK (SEQ ID NO:18) (peptide), the Fold Activation of Latent TGF-β over Baseline (soft agar NRK colony formation) (fold over baseline) amounted to 2.5.

For the origin of these results see patent publication US6384189.
